We go through one substance from patent publication US20030229041A1.

This test deals with bone morphogenetic protein 6 (UniProt P22004). Briefly: cell-based or functional assay.
Sequence of UniProt P22004 (P22004 382-513 limits assumed): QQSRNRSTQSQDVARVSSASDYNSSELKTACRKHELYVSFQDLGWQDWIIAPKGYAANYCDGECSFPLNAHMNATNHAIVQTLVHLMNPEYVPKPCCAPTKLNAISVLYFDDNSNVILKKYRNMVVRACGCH

“mouse noggin (from UniProt P97466 28-232)” returned a BMP-6 stimulated alkaline phosphatase activity in mouse mesenchymal C3H10T1/2 cells (IC50) of 0.3 µg/mL.
